Results taken from paper PMC10786891, “Massively parallel profiling of RNA-targeting CRISPR-Cas13d”.
Positions count from the first letter of the chain named. Names may count otherwise.

T1: EsCas13d, nuclease-dead (Eubacterium siraeum, UniProt B0MS50, R295A;H300A;R849A;H854A)
T1 sequence: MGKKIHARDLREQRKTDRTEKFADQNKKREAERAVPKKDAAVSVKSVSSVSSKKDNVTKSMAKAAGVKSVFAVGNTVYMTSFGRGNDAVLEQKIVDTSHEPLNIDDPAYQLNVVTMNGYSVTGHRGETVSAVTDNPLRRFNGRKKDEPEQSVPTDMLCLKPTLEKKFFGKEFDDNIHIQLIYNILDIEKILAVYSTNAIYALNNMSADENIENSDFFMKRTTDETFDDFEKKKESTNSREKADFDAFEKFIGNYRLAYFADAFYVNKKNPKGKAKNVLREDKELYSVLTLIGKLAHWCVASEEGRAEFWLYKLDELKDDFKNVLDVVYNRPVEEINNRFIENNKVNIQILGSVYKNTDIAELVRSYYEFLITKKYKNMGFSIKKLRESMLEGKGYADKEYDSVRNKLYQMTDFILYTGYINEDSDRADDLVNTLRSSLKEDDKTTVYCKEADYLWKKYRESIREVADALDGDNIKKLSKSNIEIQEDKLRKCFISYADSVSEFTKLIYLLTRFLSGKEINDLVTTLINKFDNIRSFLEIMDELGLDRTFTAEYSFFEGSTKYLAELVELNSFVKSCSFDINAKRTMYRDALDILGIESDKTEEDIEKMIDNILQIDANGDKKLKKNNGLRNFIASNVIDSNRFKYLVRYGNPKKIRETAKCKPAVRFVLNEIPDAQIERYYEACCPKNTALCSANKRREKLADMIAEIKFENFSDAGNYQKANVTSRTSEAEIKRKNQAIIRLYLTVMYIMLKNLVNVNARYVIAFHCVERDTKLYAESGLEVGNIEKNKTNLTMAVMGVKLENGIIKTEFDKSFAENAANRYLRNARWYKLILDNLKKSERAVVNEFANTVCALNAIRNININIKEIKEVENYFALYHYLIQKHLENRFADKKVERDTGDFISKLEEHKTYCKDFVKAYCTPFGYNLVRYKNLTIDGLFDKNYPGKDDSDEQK

B1: target 1 insC 3' of 17,insC 3' of 13 (mixed)
RNA 1: CACCCGUGCAAAAAUGCAGGGGUCUAAAACUGAGCGGAUAACCUCUCUAUGG
RNA 2: GGGAAUGGAUCCACAUCUACGAAUUCGUACCAUAGCAGAGCGUUAUCCGCUCACCGAGAUCGGAAGAGCACACGU
B2: target 1 U8C,G12U (mixed)
RNA 1: B1 RNA 1
RNA 2: GGGAAUGGAUCCACAUCUACGAAUUCGUACCAUAGAGAGUUUACCCGCUCACCGAGAUCGGAAGAGCACACGU
B3: target 1 G5A,U8G (mixed)
RNA 1: B1 RNA 1
RNA 2: B2 RNA 2 with U40G, C44G, G47A
B4: target 1 insG 3' of 18,insA 3' of 11 (mixed)
RNA 1: B1 RNA 1
RNA 2: B1 RNA 2 with C36G, C41G, G42U, U43A
B5: target 1 insG 3' of 4,insG 3' of 4 (mixed)
RNA 1: B1 RNA 1
RNA 2: GGGAAUGGAUCCACAUCUACGAAUUCGUACCAUAGAGAGGUUAUCCGCGGUCACCGAGAUCGGAAGAGCACACGU
B6: target 1 insG 3' of 19,insU 3' of 4 (mixed)
RNA 1: B1 RNA 1
RNA 2: GGGAAUGGAUCCACAUCUACGAAUUCGUACCAUGAGAGAGGUUAUCCGCUUCACCGAGAUCGGAAGAGCACACGU
B7: target 1 insU 3' of 12,insA 3' of 12 (mixed)
RNA 1: B1 RNA 1
RNA 2: B5 RNA 2 with U42A, A43U, C45A, C46U, G47C, G50C
B8: target 1 C6A,G13A (mixed)
RNA 1: B1 RNA 1
RNA 2: B2 RNA 2 with G39A, U40G, C44U, C46A
B9: target 1 C7G,U10C (mixed)
RNA 1: B1 RNA 1
RNA 2: B2 RNA 2 with U40G, U42C, C44U, C45G
B10: target 1 C6G,U11G (mixed)
RNA 1: B1 RNA 1
RNA 2: B2 RNA 2 with U40G, U41G, C44U, C46G
B11: target 1 del9,del14 (mixed)
RNA 1: B1 RNA 1
RNA 2: GGGAAUGGAUCCACAUCUACGAAUUCGUACCAUAGAGGGUUUCCGCUCACCGAGAUCGGAAGAGCACACGU
B12: target 1 A1U,U11A (mixed)
RNA 1: B1 RNA 1
RNA 2: B2 RNA 2 with U40G, U41A, C44U, A51U
B13: target 1 A1C,U8C (mixed)
RNA 1: B1 RNA 1
RNA 2: B2 RNA 2 with U40G, A51C
B14: target 1 insG 3' of 10,insC 3' of 9 (mixed)
RNA 1: B1 RNA 1
RNA 2: B5 RNA 2 with A43G, U44A, C46U, G47C, G50C
B15: target 1 U8C (mixed)
RNA 1: B1 RNA 1
RNA 2: B2 RNA 2 with U40G
B16: target 1 insA 3' of 5 (mixed)
RNA 1: B1 RNA 1
RNA 2: GGGAAUGGAUCCACAUCUACGAAUUCGUACCAUAGAGAGGUUAUCCGACUCACCGAGAUCGGAAGAGCACACGU
B17: target 1 A1G,U8C (mixed)
RNA 1: B1 RNA 1
RNA 2: B2 RNA 2 with U40G, A51G
B18: target 1 G5C,U19G (mixed)
RNA 1: B1 RNA 1
RNA 2: B2 RNA 2 with U33G, U40G, C44U, G47C
B19: target 1 A1U,U8C (mixed)
RNA 1: B1 RNA 1
RNA 2: B2 RNA 2 with U40G, A51U
B20: target 1 C7G,A14G (mixed)
RNA 1: B1 RNA 1
RNA 2: B2 RNA 2 with A38G, U40G, C44U, C45G
B21: target 1 del3,del17 (mixed)
RNA 1: B1 RNA 1
RNA 2: B11 RNA 2 with G35A, A36G, G37A, U42A, C43U, G45C, C46G, U47C
B22: target 1 insC 3' of 13,insA 3' of 2 (mixed)
RNA 1: B1 RNA 1
RNA 2: B6 RNA 2 with G34A, A35G, G36A, A37G, G38A, A39G, G40C, U51C, C52A
B23: target 1 U19A,A20U (mixed)
RNA 1: B1 RNA 1
RNA 2: B2 RNA 2 with A32U, U33A, U40G, C44U
B24: target 1 U19C,C22U (mixed)
RNA 1: B1 RNA 1
RNA 2: B2 RNA 2 with C30U, U33C, U40G, C44U
B25: target 1 insU 3' of 20,insU 3' of 20 (mixed)
RNA 1: B1 RNA 1
RNA 2: B1 RNA 2 with A34U, G35U, C36A, A37G, G38A, A39G, G40A, C41G
B26: target 1 insC 3' of 13,insG 3' of 1 (mixed)
RNA 1: B1 RNA 1
RNA 2: GGGAAUGGAUCCACAUCUACGAAUUCGUACCAUAGAGAGCGUUAUCCGCUCAGCCGAGAUCGGAAGAGCACACGU
B27: target 1 insC 3' of 13,insC 3' of 1 (mixed)
RNA 1: B1 RNA 1
RNA 2: B26 RNA 2 with G53C
B28: target 1 insC 3' of 13,insU 3' of 1 (mixed)
RNA 1: B1 RNA 1
RNA 2: B26 RNA 2 with G53U
B29: target 1 insA 3' of 19,insG 3' of 8 (mixed)
RNA 1: B1 RNA 1
RNA 2: B6 RNA 2 with G34A, C46G, G48C, C49G, U50C

Biological target: T1, EsCas13d, nuclease-dead
Assay: crRNA (strand 1, pre-loaded); Mg2+; 40 mM Tris-HCl pH 7.5, 150 mM NaCl, 6 mM MgCl2, 1 mM DTT, 0.1% Tween-20, 0.2 mg/ml BSA; 25 C; 10 min per concentration, then washed
Conditions: tags: His6-TwinStrep-SUMO cleaved; N-terminal SNAP kept (SNAP-Surface 488); label: 3' end held by stalled T7 RNA polymerase

Binder | Kd [nM]
B1 | 48 ± 7
B2 | 10.7 ± 0.6
B3 | 38 ± 2.4
B4 | 89 ± 11
B5 | 5.72 ± 0.26
B6 | 53 ± 6
B7 | 10.1 ± 0.5
B8 | 6.6 ± 0.4
B9 | 24.6 ± 2.2
B10 | 9.6 ± 0.5
B11 | 28 ± 1.8
B12 | 37.8 ± 3
B13 | 8.1 ± 0.4
B14 | 14.9 ± 0.6
B15 | 11.2 ± 0.4
B16 | 6.2 ± 0.4
B17 | 10.2 ± 0.9
B18 | 30 ± 4
B19 | 11.2 ± 0.5
B20 | 17.7 ± 1.2
B21 | 67 ± 17
B22 | 9 ± 0.5
B23 | 47 ± 4
B24 | 45 ± 6
B25 | 13.5 ± 1
B26 | 9.17 ± 0.3
B27 | 8.9 ± 0.6
B28 | 11.5 ± 1.1
B29 | 32.7 ± 2.3
